From the supplement of paper PMC10598134
± gives the standard deviation.

Assay: collision cross section of modified peptide (TIMS, N2, iRT-aligned); higher = larger / more extended gas-phase ion
Procedure, shortened: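 Synthetic peptide pools (~100 fmol/µL in 2% acetonitrile/0.1% formic acid, iRT standard spiked 1:40) were separated on a 120-min nanoflow C18 gradient at 60 °C. They were analysed on a timsTOF Pro/HT (dda-PASEF, nitrogen, ~2.4 mbar) and identified with MaxQuant. 1/K0 was calibrated with three reference ions and aligned run-wise to the median iRT peptide deviation. Collision cross section came from the Mason-Schamp equation, averaging 1–3 technical replicates of the most abundant feature per charge state.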

[1] = charge state: 2, modification: GlyGly (K)
[2] = charge state: 3, modification: GlyGly (K)
[3] = charge state: 2, modification: Malonyl
[4] = charge state: 2, modification: Methyl (K)
[5] = charge state: 3, modification: Methyl (K)
[6] = charge state: 2, modification: Propionyl
[7] = charge state: 2, modification: Succinyl
[8] = charge state: 3, modification: Trimethyl (K)
[9] = charge state: 2, modification: hydroxyisobutyryl
[10] = charge state: 2, modification: Acetyl (K)
[11] = charge state: 3, modification: Acetyl (K)
[12] = charge state: 2, modification: Biotin
[13] = charge state: 3, modification: Biotin
[14] = charge state: 2, modification: Butyryl
[15] = charge state: 3, modification: Butyryl
[16] = charge state: 2, modification: Crotonyl
[17] = charge state: 3, modification: Crotonyl
[18] = charge state: 2, modification: Dimethyl (K)
[19] = charge state: 3, modification: Dimethyl (K)
[20] = charge state: 2, modification: Formyl
[21] = charge state: 3, modification: Formyl
[22] = charge state: 2, modification: Glutarylation
[23] = charge state: 3, modification: Glutarylation
[24] = charge state: 3, modification: Succinyl
[25] = charge state: 3, modification: hydroxyisobutyryl
[26] = charge state: 2, modification: Trimethyl (K)
[27] = charge state: 2, modification: Citrullination (R)
[28] = charge state: 3, modification: Citrullination (R)
[29] = charge state: 3, modification: Methyl (R)

“GETASKLQSEISR [_GETASK(GlyGly (K))LQSEISR_]” gave a collision cross section [1] of 415.57 ± 0.85 Å² and a collision cross section [2] of 455.84 ± 1.3 Å².

“GETASKLQSEISR [_GETASK(Malonyl)LQSEISR_]” gave a collision cross section [3] of 395.19 ± 0.023 Å².

For “GETASKLQSEISR [_GETASK(Methyl (K))LQSEISR_]”, the collision cross section [4] was 400.35 Å² and the collision cross section [5] was 463.3 ± 3.8 Å².

Substance “GETASKLQSEISR [_GETASK(Propionyl)LQSEISR_]” has a collision cross section [6] of 387.23 ± 0.65 Å².

“GETASKLQSEISR [_GETASK(Succinyl)LQSEISR_]” showed a collision cross section [7] of 399.77 ± 2 Å².

Work on “GETASKLQSEISR [_GETASK(Trimethyl (K))LQSEISR_]” yielded a collision cross section [8] of 463.43 ± 1.5 Å².

“GETASKLQSEISR [_GETASK(hydroxyisobutyryl)LQSEISR_]” gave a collision cross section [9] of 394.7 ± 0.81 Å².

“GEVGAGAGPGAQAGPSAKR [_GEVGAGAGPGAQAGPSAK(Acetyl (K))R_]” gave a collision cross section [10] of 420.33 ± 2.6 Å² and a collision cross section [11] of 478.86 ± 2.4 Å².

Substance “GEVGAGAGPGAQAGPSAKR [_GEVGAGAGPGAQAGPSAK(Biotin)R_]” has a collision cross section [12] of 440.5 ± 1.2 Å² and a collision cross section [13] of 470.58 ± 2.6 Å².

In the case of “GEVGAGAGPGAQAGPSAKR [_GEVGAGAGPGAQAGPSAK(Butyryl)R_]”, the collision cross section [14] is reported as 426.32 ± 1.1 Å² and the collision cross section [15] is reported as 483.04 ± 4.4 Å².

In the case of “GEVGAGAGPGAQAGPSAKR [_GEVGAGAGPGAQAGPSAK(Crotonyl)R_]”, the collision cross section [16] is reported as 426.44 ± 0.55 Å² and the collision cross section [17] is reported as 497.45 ± 1.2 Å².

“GEVGAGAGPGAQAGPSAKR [_GEVGAGAGPGAQAGPSAK(Dimethyl (K))R_]” showed a collision cross section [18] of 422.35 ± 0.53 Å² and a collision cross section [19] of 490.58 ± 1.6 Å².

Work on “GEVGAGAGPGAQAGPSAKR [_GEVGAGAGPGAQAGPSAK(Formyl)R_]” yielded a collision cross section [20] of 415.62 ± 0.18 Å² and a collision cross section [21] of 470.58 ± 2.9 Å².

“GEVGAGAGPGAQAGPSAKR [_GEVGAGAGPGAQAGPSAK(Gluratylation)R_]” showed a collision cross section [22] of 425.64 ± 1.1 Å² and a collision cross section [23] of 490.81 ± 0.95 Å².

For “GEVGAGAGPGAQAGPSAKR [_GEVGAGAGPGAQAGPSAK(GlyGly (K))R_]”, the collision cross section [1] was 426.91 ± 0.84 Å² and the collision cross section [2] was 469.61 ± 1.1 Å².

In the case of “GEVGAGAGPGAQAGPSAKR [_GEVGAGAGPGAQAGPSAK(Malonyl)R_]”, the collision cross section [3] is reported as 415.94 ± 0.58 Å² and the collision cross section (charge state: 3, modification: Malonyl) is reported as 468.8 ± 1.8 Å².

With “GEVGAGAGPGAQAGPSAKR [_GEVGAGAGPGAQAGPSAK(Methyl (K))R_]” the collision cross section [4] was 422.57 ± 1.8 Å² and the collision cross section [5] was 489.3 ± 3.6 Å².

With “GEVGAGAGPGAQAGPSAKR [_GEVGAGAGPGAQAGPSAK(Propionyl)R_]” the collision cross section [6] was 422.82 ± 0.97 Å² and the collision cross section (charge state: 3, modification: Propionyl) was 482.16 ± 0.88 Å².

With “GEVGAGAGPGAQAGPSAKR [_GEVGAGAGPGAQAGPSAK(Succinyl)R_]” the collision cross section [7] was 417.99 ± 0.36 Å² and the collision cross section [24] was 474.67 ± 1.5 Å².

“GEVGAGAGPGAQAGPSAKR [_GEVGAGAGPGAQAGPSAK(Trimethyl (K))R_]” showed a collision cross section [8] of 489.76 ± 5.2 Å².

Substance “GEVGAGAGPGAQAGPSAKR [_GEVGAGAGPGAQAGPSAK(hydroxyisobutyryl)R_]” has a collision cross section [9] of 426.95 ± 0.56 Å² and a collision cross section [25] of 486.12 ± 1.9 Å².

GEVQVSDKER [_GEVQVSDK(Acetyl (K))ER_] gave a collision cross section [10] of 356.44 ± 0.96 Å².

Work on GEVQVSDKER [_GEVQVSDK(Butyryl)ER_] yielded a collision cross section [14] of 363.29 ± 0.49 Å².

With GEVQVSDKER [_GEVQVSDK(Crotonyl)ER_] the collision cross section [16] was 363.4 ± 0.8 Å².

In the case of GEVQVSDKER [_GEVQVSDK(Dimethyl (K))ER_], the collision cross section [18] is reported as 362.93 ± 0.58 Å² and the collision cross section [19] is reported as 422.58 ± 1.6 Å².

Work on GEVQVSDKER [_GEVQVSDK(Formyl)ER_] yielded a collision cross section [20] of 353.55 ± 2.5 Å².

For “GEVQVSDKER [_GEVQVSDK(Gluratylation)ER_]”, the collision cross section [22] was 368.37 ± 8.3 Å².

With GEVQVSDKER [_GEVQVSDK(GlyGly (K))ER_] the collision cross section [1] was 370.72 ± 1.1 Å² and the collision cross section [2] was 432.88 ± 2.5 Å².

GEVQVSDKER [_GEVQVSDK(Malonyl)ER_] gave a collision cross section [3] of 362.93 ± 1.2 Å².

Substance GEVQVSDKER [_GEVQVSDK(Methyl (K))ER_] has a collision cross section [4] of 360.9 ± 0.67 Å² and a collision cross section [5] of 436.39 ± 5.2 Å².

With GEVQVSDKER [_GEVQVSDK(Propionyl)ER_] the collision cross section [6] was 360.54 ± 0.33 Å².

GEVQVSDKER [_GEVQVSDK(Succinyl)ER_] gave a collision cross section [7] of 361.33 ± 0.24 Å².

In the case of “GEVQVSDKER [_GEVQVSDK(Trimethyl (K))ER_]”, the collision cross section [26] is reported as 366.73 ± 1.1 Å².

For “GEVQVSDKER [_GEVQVSDK(hydroxyisobutyryl)ER_]”, the collision cross section [9] was 366.78 ± 0.27 Å².

Substance GEYFGEK [_GEY(Nitro (Y))FGEK_] has a collision cross section (charge state: 2, modification: Nitro (Y)) of 309.86 ± 0.71 Å².

Substance GEYFGEK [_GEY(Phospho (Y))FGEK_] has a collision cross section (charge state: 2, modification: Phospho (Y)) of 321.93 ± 0.65 Å².

“GFALVGVGSEASSKK [_GFALVGVGSEASSK(Acetyl (K))K_]” showed a collision cross section [10] of 429.07 ± 17 Å² and a collision cross section [11] of 499.93 ± 0.98 Å².

“GFALVGVGSEASSKK [_GFALVGVGSEASSK(Biotin)K_]” gave a collision cross section [12] of 423.88 ± 1.4 Å² and a collision cross section [13] of 494.71 ± 0.97 Å².

“GFALVGVGSEASSKK [_GFALVGVGSEASSK(Butyryl)K_]” gave a collision cross section [14] of 447.9 ± 0.87 Å² and a collision cross section [15] of 499.86 ± 2.6 Å².

For “GFALVGVGSEASSKK [_GFALVGVGSEASSK(Crotonyl)K_]”, the collision cross section [16] was 448.38 ± 0.94 Å² and the collision cross section [17] was 499.08 ± 1.9 Å².

Work on “GFALVGVGSEASSKK [_GFALVGVGSEASSK(Dimethyl (K))K_]” yielded a collision cross section [18] of 439.69 ± 1.2 Å² and a collision cross section [19] of 485.09 ± 1.2 Å².

“GFALVGVGSEASSKK [_GFALVGVGSEASSK(Formyl)K_]” showed a collision cross section [20] of 409.61 ± 2 Å² and a collision cross section [21] of 498.32 ± 1.8 Å².

For “GFALVGVGSEASSKK [_GFALVGVGSEASSK(Gluratylation)K_]”, the collision cross section [22] was 416.74 ± 0.49 Å² and the collision cross section [23] was 499.26 ± 3.6 Å².

Work on “GFALVGVGSEASSKK [_GFALVGVGSEASSK(GlyGly (K))K_]” yielded a collision cross section [1] of 452.76 ± 1.4 Å² and a collision cross section [2] of 507.31 ± 14 Å².

With “GFALVGVGSEASSKK [_GFALVGVGSEASSK(Malonyl)K_]” the collision cross section [3] was 414.22 ± 0.58 Å².

Work on “GFALVGVGSEASSKK [_GFALVGVGSEASSK(Methyl (K))K_]” yielded a collision cross section [4] of 437.53 ± 2.3 Å² and a collision cross section [5] of 496.87 ± 4 Å².

Work on “GFALVGVGSEASSKK [_GFALVGVGSEASSK(Propionyl)K_]” yielded a collision cross section [6] of 411.51 Å².

“GFALVGVGSEASSKK [_GFALVGVGSEASSK(Succinyl)K_]” showed a collision cross section [7] of 413.38 ± 0.54 Å² and a collision cross section [24] of 497.13 ± 2.5 Å².

With “GFALVGVGSEASSKK [_GFALVGVGSEASSK(Trimethyl (K))K_]” the collision cross section [26] was 444.52 ± 0.57 Å² and the collision cross section [8] was 489.21 ± 1.8 Å².

“GFALVGVGSEASSKK [_GFALVGVGSEASSK(hydroxyisobutyryl)K_]” gave a collision cross section [9] of 419.49 ± 2.2 Å² and a collision cross section [25] of 502.54 ± 2.1 Å².

Work on “GFCFITYTDEEPVKK [_GFCFITYTDEEPVK(Acetyl (K))K_]” yielded a collision cross section [10] of 451.75 ± 3.1 Å².

“GFCFITYTDEEPVKK [_GFCFITYTDEEPVK(Butyryl)K_]” showed a collision cross section [14] of 458.8 ± 0.51 Å².

In the case of “GFCFITYTDEEPVKK [_GFCFITYTDEEPVK(Formyl)K_]”, the collision cross section [20] is reported as 450.51 Å².

Substance “GFCFITYTDEEPVKK [_GFCFITYTDEEPVK(Gluratylation)K_]” has a collision cross section [22] of 471.64 ± 1.5 Å².

“GFCFITYTDEEPVKK [_GFCFITYTDEEPVK(GlyGly (K))K_]” gave a collision cross section [1] of 487.35 ± 2.6 Å² and a collision cross section [2] of 525.77 Å².

Work on “GFCFITYTDEEPVKK [_GFCFITYTDEEPVK(Malonyl)K_]” yielded a collision cross section [3] of 452.98 ± 0.65 Å².

“GFCFITYTDEEPVKK [_GFCFITYTDEEPVK(Methyl (K))K_]” showed a collision cross section [4] of 460.43 ± 0.33 Å² and a collision cross section [5] of 513.09 ± 2.7 Å².

In the case of “GFCFITYTDEEPVKK [_GFCFITYTDEEPVK(Succinyl)K_]”, the collision cross section [7] is reported as 465.85 ± 1.1 Å².

“GFCFITYTDEEPVKK [_GFCFITYTDEEPVK(Trimethyl (K))K_]” showed a collision cross section [26] of 480.23 Å².

Work on “GFCFITYTDEEPVKK [_GFCFITYTDEEPVK(hydroxyisobutyryl)K_]” yielded a collision cross section [9] of 453.41 ± 0.8 Å².

“GFGRGGAESHTFK [_GFGR(Citrullination (R))GGAESHTFK_]” showed a collision cross section [27] of 413.94 ± 1 Å² and a collision cross section [28] of 465.74 ± 2.2 Å².

“GFGRGGAESHTFK [_GFGR(Methyl (R))GGAESHTFK_]” gave a collision cross section [29] of 473.29 ± 3 Å².

“GFLQPPPLRQPR [_GFLQPPPLR(Citrullination (R))QPR_]” gave a collision cross section [27] of 391.62 ± 0.23 Å² and a collision cross section [28] of 460.68 Å².

Work on “GFLQPPPLRQPR [_GFLQPPPLR(Methyl (R))QPR_]” yielded a collision cross section (charge state: 2, modification: Methyl (R)) of 399.75 Å² and a collision cross section [29] of 450.22 ± 3.5 Å².

Work on “GFPGAPGLPGLK [_GFPGAP(Hydroxyproline)GLPGLK_]” yielded a collision cross section (charge state: 2, modification: Hydroxyproline) of 358.41 ± 0.79 Å².
